Data: article PMC5429695, “Assembly of Ruminococcus flavefaciens cellulosome revealed by structures of two cohesin-dockerin complexes” (Scientific Reports, 2017)

Experiments:
Experiment in all cases: ITC; 308 K; dockerin in the cell (stirred at 307 revolutions/min) titrated with 28 injections of 10 uL cohesin at 220 s intervals; proteins in 50 mM HEPES pH 7.5, 0.5 mM CaCl2, 0.5 mM TCEP; single-site model
Details in all cases: both partners purified
[1] = target: T1, RfDoc1a V43A, thioredoxin A fusion (R. flavefaciens FD-1)
T1 construct: numbers count on: the recombinant construct of the crystal structure (RfDoc1a numbering of PDB 5M2O); mutant of m3 (pHTP2 derivative); see the note of m3 on limits and numbering; source: E. coli, purified (IMAC, His GraviTrap)

[2] = target: T2, RfDoc1a K54A, thioredoxin A fusion (R. flavefaciens FD-1)
T2 construct: numbers count on: the recombinant construct of the crystal structure (RfDoc1a numbering of PDB 5M2O); mutant of m3 (pHTP2 derivative); see the note of m3 on limits and numbering; source: E. coli, purified (IMAC, His GraviTrap)

[3] = target: T3, RfDoc1a, group 1a dockerin, thioredoxin A fusion, wild type (R. flavefaciens FD-1)
T3 construct: numbers count on: the recombinant construct of the crystal structure (RfDoc1a numbering, residues 23-96 seen in PDB 5M2O); also called Doc1aWT; source: E. coli, purified (IMAC, His GraviTrap)

[4] = target: T4, RfDoc1a I39A, thioredoxin A fusion (R. flavefaciens FD-1)
T4 construct: numbers count on: the recombinant construct of the crystal structure (RfDoc1a numbering of PDB 5M2O); mutant of m3 (pHTP2 derivative); see the note of m3 on limits and numbering; source: E. coli, purified (IMAC, His GraviTrap)

[5] = target: T5, RfDoc1a Q83A, thioredoxin A fusion (R. flavefaciens FD-1)
T5 construct: numbers count on: the recombinant construct of the crystal structure (RfDoc1a numbering of PDB 5M2O); mutant of m3 (pHTP2 derivative); see the note of m3 on limits and numbering; source: E. coli, purified (IMAC, His GraviTrap)

[6] = target: T6, RfDoc1a S40A, thioredoxin A fusion (R. flavefaciens FD-1)
T6 construct: numbers count on: the recombinant construct of the crystal structure (RfDoc1a numbering of PDB 5M2O); mutant of m3 (pHTP2 derivative); see the note of m3 on limits and numbering; source: E. coli, purified (IMAC, His GraviTrap)

[7] = target: T7, RfDoc1a L87A, thioredoxin A fusion (R. flavefaciens FD-1)
T7 construct: numbers count on: the recombinant construct of the crystal structure (RfDoc1a numbering of PDB 5M2O); mutant of m3 (pHTP2 derivative); see the note of m3 on limits and numbering; source: E. coli, purified (IMAC, His GraviTrap)

[8] = target: T8, RfDoc1a V43A + Q47A, thioredoxin A fusion (R. flavefaciens FD-1)
T8 construct: numbers count on: the recombinant construct of the crystal structure (RfDoc1a numbering of PDB 5M2O); mutant of m3 (pHTP2 derivative); see the note of m3 on limits and numbering; source: E. coli, purified (IMAC, His GraviTrap)

[9] = target: T9, RfDoc1a Q47A, thioredoxin A fusion (R. flavefaciens FD-1)
T9 construct: numbers count on: the recombinant construct of the crystal structure (RfDoc1a numbering of PDB 5M2O); mutant of m3 (pHTP2 derivative); see the note of m3 on limits and numbering; source: E. coli, purified (IMAC, His GraviTrap)

[10] = target: T10, RfDoc1b, group 1b dockerin, thioredoxin A fusion, wild type (R. flavefaciens FD-1)
T10 construct: group 1b dockerin (Doc1b), C-terminal component of protein WP_009982745, a family 9 glycoside hydrolase of R. flavefaciens FD-1, residues 783-862; numbers count on: the recombinant construct of the crystal structure (RfDoc1b numbering, residues 24-102 seen in PDB 5M2S); also called Doc1bWT; Doc1b WT; source: E. coli, purified (IMAC, His GraviTrap)

Ka [1]: 1.91e+06 M⁻¹ | dH [1]: -52.08 ± 0.14 kcal/mol | stoichiometry N [1]: 1 | Ka [2]: 1.96e+07 M⁻¹ | dH [2]: -59.73 ± 0.25 kcal/mol | stoichiometry N [2]: 1 | Ka [3]: 1.18e+08 M⁻¹ | dH [3]: -50.68 ± 0.29 kcal/mol | stoichiometry N [3]: 1 | Ka [4]: 3.86e+06 M⁻¹ | dH [4]: -57.26 ± 0.12 kcal/mol | stoichiometry N [4]: 1 | Ka [5]: 1.54e+08 M⁻¹ | dH [5]: -39.5 ± 0.83 kcal/mol | stoichiometry N [5]: 1 | Ka [6]: 1.09e+08 M⁻¹ | dH [6]: -46.6 ± 0.15 kcal/mol | stoichiometry N [6]: 1 | Ka [7]: 2.81e+07 M⁻¹ | dH [7]: -59.84 ± 0.19 kcal/mol | stoichiometry N [7]: 1 | Ka [8]: 436000 M⁻¹ | dH [8]: -48.79 ± 0.39 kcal/mol | stoichiometry N [8]: 1 | Ka [9]: 1.71e+07 M⁻¹ | dH [9]: -48.27 ± 0.12 kcal/mol | stoichiometry N [9]: 1 | Ka [10]: 1.03e+07 M⁻¹ | dH [10]: -64.94 ± 0.44 kcal/mol | stoichiometry N [10]: 1
B1: RfCohScaB3, ScaB cohesin 3 with C-terminal hexa-histidine tag, wild type (domain or fragment)
chain: MPVANADVVFDFQNYTAKAGDEVTVDVLVDSKNKPISAMDVKFKVDSPLTIEEIDKESLAFNTTVMTNMAILGANFKSLDDKGEPLVPKDGAAVFTLYVNVPANTPDGTYYVGFNGKNEVHKSNDGSQFTVASKNGAITVGTPNEEG
